# US20180112194A1, “MUTANT HUMAN DEOXYCYTIDINE KINASE” (Centre National De La Recherche Scientifique, priority 2015, published 2018)
# Where two headings read alike, the source gives them in different places.
# How the values were obtained:
# [1] = system: Messa10K cells; conditions: for efficiency of SIN vectors versus wt vectors / plateau of maximum mortality: gemcitabine; for efficiency of SIN vectors versus wt vectors: Messa 10K, data not shown
# Procedure: Methods to measure sensitivity of a cell, such as a eukaryotic cell are known to the skilled in the art. In one example, cells were transduced with a vector comprising for example the mutant “M36” or the wild-type hdCK. Therefore, 1×10^6 cells were contacted with 1 ml of 1:5 diluted viral vectors rescued from the isolated clones. Transduced cells were selected, for example, by adding puromycin 24 h after transduction using 0.6 μg/ml to HEK-293T cells, 0.6 μg/ml to HEK-293T-CD4^+ cells, 0.5 μg/ml to Messa10K cells. The transduced cells were then for example seeded at 5,000 cells per well in a 96-well plate and grown overnight at 37° C. Typically, two rows were used for each population. 12 h after seeding, increasing concentrations of for example gemcitabine (0-400 nM or […]), or araC (0-10 mM) were added to each well and left in culture for further 72 h. Cell viability was measured by MTT test (CellTiter 96 Non-Radioactive Cell Proliferation Assay, Promega) and the number of living cells in each well was evaluated by measuring the OD at 570 nm. For each population, the fraction of living cells was calculated as OD570 concentration X Gem/OD570 concentration 0 Gem, to estimate the sensitivity of the population to the prodrug.
# Tests of sensitivity to anticancer drugs. Cells were seeded at 5000 cells per well in a 96-well plate and grown overnight at 37° C. Two rows were used for each population. 12 h after seeding, increasing concentrations of Gemcitabine (0-400 nM or 0-100 μM), or AraC (0-10 mM) were added to each well and left in culture for further 72 h. Cell viability was measured by MTT test (CellTiter 96 Non-Radioactive Cell Proliferation Assay, Promega) and the number of living cells in each well was evaluated by measuring the OD at 570 nm. For each population, the fraction of alive cells was calculated as OD570 concentration X Gem/OD570 concentration 0 Gem, to estimate the sensitivity of the population to the prodrug. Tests of sensitivity to antiviral drugs. Viral vectors were generated by transfection of HEK-293T cells with 10 μg of pCMVAR8.91 plasmid, 5 μg of pHCMV-G plasmid, and 10 μg of genomic plasmid SDY-dCK (described in Rossolillo et al. 2012) encoding either for the wild type sequence of the human dCK or the M36 variant. Transduction was performed on 1×10^6 HEK-293T-CD4+ cells with viral vectors. Transduced cells were selected in the presence of 0.6 μg/ml of puromycin, added 24 h after transduction. 50 to 200 individual puromycin-resistant clones were pooled and expanded obtaining the polyclonal wt-dCK cell population (wtdCK-pcP, for wt dCK polyclonal population) and the […] cell population (M36-pcP). Vectors for challenging infection in the presence of antiviral drugs were generated by transfection with 10 μg of pTopo plasmid encoding for the HIV envelope ADA (ref, plus Hamoudi 2013), 5 μg of pHCMV-G plasmid, and 10 μg of genomic plasmid SDY-Luc, which is a variant of the pSDY plasmid encoding for the firefly luciferase. These viruses were used to transduce 1×10^6 HEK-293T-CD4+-wtdCK or HEK-293T-CD4+-M36 cells. Viral infection was then monitored 48 hours after transduction. For this the medium was removed, the cells were washed twice in PBS, lysed, centrifuged, and the supernatant was used to measure luciferase activity according to the manufacturer's protocol (Promega, Fitchburg, Wis., USA) with a Glomax luminometer (Promega, Fitchburg, Wis., USA). Western blot analyses. Messa10K cell lines expressing either the wt dCK or M36, both in the context of a proviral DNA with functional LTR or with an inactivated LTR were lysed in 1×RIPA buffer, and 30, 60, 120 μg of total protein (evaluated by Bradford) for each cell type and loaded on a 12% bis-tricine gel (Invitrogen).
# [2] = system: HIV-derived vectors in HEK 293T/CD4+ cells; assay: Tests of sensitivity to antiviral drugs: infection of hdCK-transduced cells by luciferase-encoding HIV-derived vectors; assay type: cell-based; conditions: luciferase 48 hours after infection
# Procedure: (§1) Tests of sensitivity to anticancer drugs. […] Two rows were used for each population. […] Tests of sensitivity to antiviral drugs. […] Viral infection was then monitored 48 hours after transduction. […] Western blot analyses. […] Production and purification of recombinant dCK proteins. […] Phosphorylation tests in vitro. […] ATP was 4 mM. All experiments were performed in triplicate.
# Firstly HEK 293T/CD4^+ cells were transduced at a low MOI of by the vector encoding the M36 variant and selection of the successfully transduced cells was performed using puromycin. The selected cell line was then transduced with lentiviral vectors, as described in Materials and Methods, encoding the luciferase gene and luciferase levels ere measured 48 hours after infection. A comparison with the level of luciferase detected in the parallel infection of control HEK 293T/CD4^+ cells expressing as a transgene the wt dCK gene was performed and the data plotted.
# [3] = biological target: T1, human dCK (Homo sapiens, UniProt P27707, E171K/E247K/L249M/S169N); assay: Phosphorylation tests in vitro (NADH-based assay) with purified recombinant dCK proteins; assay type: biochemical; conditions: for Km compared to wt dCK / Kcat relative to wt dCK: FIG. 9A
# T1 construct: His tag (C, cleaved yes); made in house; host or cells: E. coli BL21 DE3 pLysE (pET14b)
# Procedure: (§2) Methods to qualitatively and/or quantitatively evaluate phosphorylation of a compound, such as a nucleoside compound, are known to the skilled in the art. In one example, the efficiency of phosphorylation of a substrate such as the natural substrate deoxycytidine, or the prodrugs gemcitabine and AraC, is measured for example with the purified wild-type hdCK and the mutant “M36” in typically a NADH-based assay as described in (Agarwal K C. et al. 1978 Methods Enzymol 51: 483-490). Accordingly, the enzymes are typically assayed at, for example, room temperature at a concentration of 0.45 μM for dC, 0.3 μM for Gemcitabine, and 0.3 for AraC. dC is typically used at concentrations of 5 to 50 μM, Gemcitabine at concentrations of 20 μM to 1 mM, and araC is typically used at concentrations of 20μM to 0.5 mM. ATP is used typically at 4 mM.
# as §1
# (§3) To characterise its biochemical properties M36 and, as a control, the wt dCK protein, were produced as recombinant, C-ter His tagged proteins in E. coli, purified and tested for their efficiency of phosphorylation in vitro. As it was the case for the G12 mutant (Rossolillo et al. 2012) also for M36 the substitutions present in the mutant led to a decrease in the Vmax of phosphorylation as function of the concentration of substrate, for both dC and for gemcitabine, but while the decrease is dramatic for the dC it is only modest for gemcitabine (FIGS. 8A-B).
# [4] = system: human dCK; assay: as above; assay type: biochemical; conditions: FIG. 9B, G12 values from Rossolillo et al. 2012
# Procedure: as §2, §1, §3
# [5] = system: Messa10K cells; conditions: cited from earlier work
# [6] = biological target: T2, human dCK (Homo sapiens, UniProt P27707, E171K/E247K/L249M); conditions: cited from earlier work
# T2 construct: His tag (C, cleaved yes); made in house; host or cells: E. coli BL21 DE3 pLysE (pET14b)
# T2 sequence (P27707 whole entry E171K/E247K/L249M): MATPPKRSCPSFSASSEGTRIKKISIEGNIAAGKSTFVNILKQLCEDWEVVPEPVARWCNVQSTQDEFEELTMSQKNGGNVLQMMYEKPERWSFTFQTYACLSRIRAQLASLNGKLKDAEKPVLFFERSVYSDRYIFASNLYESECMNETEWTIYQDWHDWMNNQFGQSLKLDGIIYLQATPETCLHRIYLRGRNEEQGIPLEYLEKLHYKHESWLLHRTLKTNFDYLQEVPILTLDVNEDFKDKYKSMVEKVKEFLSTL
# T1 sequence (P27707 whole entry S169N/E171K/E247K/L249M): as the sequence (P27707 whole entry E171K/E247K/L249M) above, with S169N counted along it
substance,measurement,setting,value
"M36: mutant human deoxycytidine kinase (hdCK) with mutations S169N, E171K, E247K and L249M; delivered as lentiviral transgene or recombinant protein",sensitisation to AraC with respect to control cells expressing exogenous wt dCK,"[1]; AraC, FIG. 7B",strong sensitisation
same,sensitisation phenotype to gemcitabine compared to G12,"[1]; Messa10K, FIG. 1 and 2",further improved sensitisation phenotype
same,sensitization to gemcitabine,[1]; cells originally resistant to gemcitabine,900 fold
same,"sensitization of cells to cytarabine (AraC), factor",[1]; cytarabine (AraC),"10,000"
same,sensitisation of Messa 10K cells to fludarabine,"[1]; fludarabine, FIG. 7A",no significant sensitisation
same,efficiency of SIN vectors versus wt vectors,[1],more efficient
same,plateau of maximum mortality,[1]; SIN vector (inactivated LTR),80%
same,plateau of maximum mortality,[1]; wt LTR vector,60%
same,lower infectivity versus cells expressing wt dCK,"[2]; 3TC, FIG. 6",~2 fold
same,resistance to infection versus cells expressing wt dCK,"[2]; ddC, FIG. 5",no significant increase in resistance
same,Km compared to wt dCK,[3]; natural substrate dC,reversed
same,reduction of the Vmax of phosphorylation compared to wt dCK,"[3]; substrate AraC, FIG. 8C",very modest reduction
same,Kcat relative to wt dCK,[3]; substrate AraC,approximately 50%
same,Km compared to wt dCK,[3]; substrate AraC,increased
same,decrease in the Vmax of phosphorylation compared to wt dCK,"[3]; substrate dC, FIG. 8A",dramatic
same,Kcat relative to wt dCK,[3]; substrate dC,approximately 50%
same,decrease in the Vmax of phosphorylation compared to wt dCK,"[3]; substrate gemcitabine, FIG. 8B",only modest
same,Kcat relative to wt dCK,[3]; substrate gemcitabine,approximately 50%
same,Km compared to wt dCK,[3]; substrate gemcitabine,increased
same,"increase in Kcat M36 vs G12, factor",[4]; natural substrate dC,9.5
same,"increase in Km M36 vs G12, factor",[4]; natural substrate dC,3.5
same,ratio of Kcat M36 vs G12,[4]; substrate gemcitabine,1
same,ratio of Km M36 vs G12,[4]; substrate gemcitabine,1
"G12: hdCK mutant comprising three mutations, Glu171Lys, Glu247Lys and Leu249Met, described in Rossolillo et al. 2012 and WO2011/058081",efficiency of SIN vectors versus wt vectors,[1],more efficient
same,sensitization to gemcitabine,[5]; cells originally resistant to gemcitabine (Messa10K),300 fold
same,sensitization effect relative to the one induced with the wild-type enzyme,"[5]; gemcitabine, Messa10K",60 times
same,ability to phosphorylate dC with respect to the wild type enzyme,[6]; substrate dC,almost complete loss of ability
same,efficiency of phosphorylation of gemcitabine with respect to the wild type enzyme,[6]; substrate gemcitabine,almost unaltered
